In publication PMC10703047:

Molecular target: DosR (DevR) (Mycobacterium tuberculosis H37Rv) (UniProt P9WMF9)
Assay: EMSA

DosR (DevR) (Mycobacterium tuberculosis H37Rv), sequence (P9WMF9 whole entry): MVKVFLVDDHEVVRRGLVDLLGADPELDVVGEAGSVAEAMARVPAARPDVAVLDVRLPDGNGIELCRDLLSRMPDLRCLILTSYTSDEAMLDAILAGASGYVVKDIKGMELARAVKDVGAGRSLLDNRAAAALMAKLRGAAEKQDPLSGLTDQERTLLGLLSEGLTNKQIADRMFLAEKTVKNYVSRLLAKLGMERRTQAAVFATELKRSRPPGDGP

Row | Sequence | binding
1 | AGCGGTTCGGACTCCACCGCGTCTCCTGAGAGCTTCAGCGTTACATCGGTTGACGAGTTGAAGAATTTATCAGATAGTGCGGATGCGTGCGGGCCGCCCGCGGCCAATCGGCTACGGCGTACGCGAGTCAGC (double strand) [rv0081 promoter] | no binding
2 | TGGTATCTGACACTGCTACGTTCCTTTCCGCTTGTTGGTCCACGTCCTTGCACGAGCCAACCGGACCATGGTCCGATTTATTCCGATCGCGTTACAGTGCAAAGGTGAGCGGCGCCGAGC (double strand) [rv3054 promoter] | binds
3 | AGCGGGATCGCATCACGCATTGGGTACCTCCGATGCTGGCGGATAAAGCCTTTCGTGCCGGCGGATGATCCGAGGTCGCTAGCTGGCGAGGGCCATGGGCGAGCA (double strand) [rv2625 promoter] | no binding
4 | TAAGTGGACACGAACCGTAAGTTTAGACTTACGGATATTCTTCCGCAAGGGTGCGCGGGTGGTGTGACACGTGATCCGGGCATCCCGTCACCCATGGCGTTGGAGCCGAGTATCGGTTGGCGACGTTGGCCCGCCGGAAAGTCGACTGGTACAAGCATTTTCCGAGAACCCATGCGGCGCGTCGCGGCGATGACCGGCAGAGAGGCTCCCTAGTATTGCGGCGTGCTGGATCGCTATGGAACCGA (double strand) [rv1955 promoter] | binds
